Laboratory results reported in paper PMC5669894.

How the values were obtained:
[1] = target: C-terminal SH3 domain of the growth factor receptor-bound protein 2 (Grb2) (UniProt P62993); assay: stopped-flow binding kinetics (intrinsic fluorescence); pseudo-first order; Grb2 SH3C constant at 0.5 μM, Gab2 503-524 peptide 1-10 μM (1-12 μM for P519A); 10°C; 25mM HEPES, 100mM potassium acetate, pH 7.5; apparent association and dissociation rate constants
[2] = target: C-terminal SH3 domain of the growth factor receptor-bound protein 2 (Grb2) (UniProt P62993); assay: stopped-flow displacement kinetics (intrinsic fluorescence); pre-incubated complex of wild type Grb2 SH3C (10 μM) and Gab2 503-524 (10 μM) mixed with excess Grb2 SH3C W35Y/W36Y (100 μM and 200 μM); 25°C; 25mM HEPES, 100mM potassium acetate, pH 7.5

Sequence of Gab2 503-524 peptide, wild type (Q9UQC2 503-524): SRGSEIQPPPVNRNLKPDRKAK

| Kd [1] [nM] | koff [1] [s⁻¹] | kon [1] [M⁻¹ s⁻¹] | koff [2] [s⁻¹] | Substance |
| --- | --- | --- | --- | --- |
| 2500 |  |  |  | Gab2 503-524 peptide, variant P510A |
| 2500 |  |  |  | Gab2 503-524 peptide, variant P512A |
| 12000 |  |  |  | Gab2 503-524 peptide, variant P519A |
|  | 53 | 4.3e+07 | 350 | Gab2 503-524 peptide, wild type |
